Substrate: CC(=O)N1c2ccc(O)cc2Oc2cc(O)ccc21
Test: purified protein, by the assay type
[1] = other: Lineweaver-Burk curves in the absence of inhibitor
[2] = other: initial velocities, plate reader, MPO 23 nM, H2O2 22 μM, error 2 x SD

B1: Myeloperoxidase (MPO) (Homo sapiens) (protein)
chain 1: not shown
chain 2: VNCETSCVQQPPCFPLKIPPNDPRIKNQADCIPFFRSCPACPGSNITIRNQINALTSFVDASMVYGSEEPLARNLRNMSNQLGLLAVNQRFQDNGRALLPFDNLHDDPCLLTNRSARIPCFLAGDTRSSEMPELTSMHTLLLREHNRLATELKSLNPRWDGERLYQEARKIVGAMVQIITYRDYLPLVLGPTAMRKYLPTYRSYNDSVDPRIANVFTNAFRYGHTLIQPFMFRLDNRYQPMEPNPRVPLSRVFFASWRVVLEGGIDPILRGLMATPAKLNRQNQIAVDEIRERLFEQVMRIGLDLPALNMQRSRDHGLPGYNAWRRFCGLPQPETVGQLGTVLRNLKLARKLMEQYGTPNNIDIWMGGVSEPLKRKGRVGPLLACIIGTQFRKLRDGDRFWWENEGVFSMQQRQALAQISLPRIICDNTGITTVSKNNIFMSNSYPRDFVNCSTLPALNLASWREAS
Q: What does the source list for B1?
A: Km [1]: 28.8 µM; kcat [1]: 207 s⁻¹; Km [2]: 31 ± 4 µM; kcat [2]: 186 ± 6 s⁻¹
